Measured values published in patent publication US7176283B1, “Protease-activated receptor 3 and uses thereof” (The Regents of the University of California, priority 1996, dated 2007).
Blank lines part the entries; values can stand above or below the substance they belong to.

Experiments:
[1] = biological target: epitope-tagged human PAR3 (FLAG epitope fused to amino acid 17 of PAR3) (human) (UniProt O00254); assay: antibody binding to the FLAG epitope on the surface of transfected Cos 7 cells
human PAR3 = biological target: T1, human PAR3 (Homo sapiens, UniProt O00254); assay: Phosphoinositide hydrolysis in Cos 7 cells transfected with human PAR3; type: cell-based; conditions: Cos 7 cells expressing human PAR3; peptide concentrations up to 100 μM
T1 construct: The human PAR3 cDNA used for the functional studies presented below was cloned from a Lamda gt 10 intestinal cDNA library; expressed in transfected cells; host or cells: Cos 7 cells
T1 sequence (O00254 22-374): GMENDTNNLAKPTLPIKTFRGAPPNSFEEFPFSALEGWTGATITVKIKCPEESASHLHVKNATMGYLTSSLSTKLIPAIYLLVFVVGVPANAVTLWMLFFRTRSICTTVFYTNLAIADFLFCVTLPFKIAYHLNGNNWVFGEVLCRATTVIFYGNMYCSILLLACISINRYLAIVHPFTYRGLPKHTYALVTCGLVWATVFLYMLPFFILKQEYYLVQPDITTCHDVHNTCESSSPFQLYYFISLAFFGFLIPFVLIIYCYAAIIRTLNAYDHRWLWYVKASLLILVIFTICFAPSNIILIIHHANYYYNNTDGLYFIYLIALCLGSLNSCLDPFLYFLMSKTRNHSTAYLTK
Description: PAR3 signaling in Cos 7 cells was also examined. Cos 7 cells were transfected with human PAR1 or PAR3. Cells were then metabolically labelled with ^3H-inositol and phosphoinositide hydrolysis was measured in response to the indicated concentrations of a-thrombin (FIG. 8) or γ-thrombin (FIG. 9) as described by Ishii, et al. and Nanevicz et al. (Ishii, K. et al. (1993) supra; and Nanevicz, T. et al. (1996) J. Biol. Chem. 271:702–706).
Peptides homologous to the tethered domain of PAR3 may be tested as potential agonists of PAR3 activity. Two peptides TFRGAP (SEQ NO:27) and […] (SEQ ID NO:17) were synthesized and tested for their ability to mimic the action of thrombin by causing PAR3 signaling as measured by phosphoinositide hydrolysis. Cos 7 cells expressing human PAR3 were incubated with the peptides at concentrations up to 100 μM.

[2] = biological target: α-thrombin (Homo sapiens (Human)) (UniProt P00734); assay: cell-based or functional assay
[3] = biological target: epitope-tagged human PAR3 (FLAG epitope fused to amino acid 17 of PAR3) (human) (UniProt O00254); assay: cell-based or functional assay
[4] = test system: epitope-tagged human PAR3 bearing the F40A tethered ligand domain mutation
[5] = biological target: human protease-activated receptor 3 (human) (UniProt O00254); assay: cell-based or functional assay

Substance: M1 monoclonal antibody (Kodak)
share of M1 antibody binding that was transfection-dependent [1]: > 95%

Substance: TFRGAP [synthetic peptide homologous to the tethered ligand domain of PAR3]
PAR3 signaling as measured by phosphoinositide hydrolysis (agonist activity) (human PAR3): no detectable signaling

Substance: TFRGAPPNS [synthetic peptide homologous to the tethered ligand domain of PAR3]
PAR3 signaling as measured by phosphoinositide hydrolysis (agonist activity) (human PAR3): no detectable signaling

Substance: hirugen (peptide)
shift of the α-thrombin dose response curve for PAR3 signaling (data not shown) [2]: 2 logs

Substance: α-thrombin
PAR3 signaling and PAR3 cleavage by thrombin [4]: ablated PAR3 signaling but not PAR3 cleavage by thrombin

The remaining lines, values ahead:

45Ca release in Xenopus oocytes [3]: 1 µM
Substance: thrombin rendered proteolytically inactive by the active site inhibitor PPACK (enzyme)

EC50, phosphoinositide hydrolysis in Cos 7 cells [5]: 20 nM
Substance: γ-thrombin (enzyme)
